Reference: publication PMC10397247
Like-named read-outs stand apart in the source and are kept apart here.

Experiments:
Assay in all cases: two-hybrid library CCmax;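 also: natural log of median RNA to DNA barcode read ratio; higher means stronger binding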
4H376-AA = target: T1, 4H376-AA; conditions: mean of both orientations
T1 chain: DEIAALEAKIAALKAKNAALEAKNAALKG

4H406-AA = target: T2, 4H406-AA; conditions: mean of both orientations
T2 chain: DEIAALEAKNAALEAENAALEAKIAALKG

4H3493-AA = target: T3, 4H3493-AA
T3 chain: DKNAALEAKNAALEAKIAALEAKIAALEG

4H963-AA = target: T4, 4H963-AA; conditions: mean of both orientations
T4 chain: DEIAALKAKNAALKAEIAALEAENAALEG

4H688-AA = target: T5, 4H688-AA; conditions: mean of both orientations
T5 chain: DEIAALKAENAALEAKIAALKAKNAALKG

APC5531-AA = target: T6, APC5531-AA; conditions: mean of both orientations
T6 chain: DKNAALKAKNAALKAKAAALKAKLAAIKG

APC9806-AA = target: T7, APC9806-AA; conditions: mean of both orientations
T7 chain: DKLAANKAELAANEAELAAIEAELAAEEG

APC3354-AA = target: T8, APC3354-AA; conditions: mean of both orientations
T8 chain: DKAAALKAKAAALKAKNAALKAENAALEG

APC7524-AA = target: T9, APC7524-AA; conditions: mean of both orientations
T9 chain: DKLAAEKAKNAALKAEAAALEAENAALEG

APC3323-AA = target: T10, APC3323-AA; conditions: mean of both orientations
T10 chain: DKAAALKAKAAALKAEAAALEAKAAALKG

APC3265-AA = target: T11, APC3265-AA
T11 chain: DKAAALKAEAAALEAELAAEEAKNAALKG

APC9141-AA = target: T12, APC9141-AA; conditions: mean of both orientations
T12 chain: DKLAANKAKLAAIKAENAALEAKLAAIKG

APC8401-AA = target: T13, APC8401-AA; conditions: mean of both orientations
T13 chain: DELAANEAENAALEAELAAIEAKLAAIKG

APC3881-AA = target: T14, APC3881-AA; conditions: mean of both orientations
T14 chain: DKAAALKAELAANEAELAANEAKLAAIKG

APC5009-AA = target: T15, APC5009-AA; conditions: mean of both orientations
T15 chain: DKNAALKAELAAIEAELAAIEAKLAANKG

APC9182-AA = target: T16, APC9182-AA; conditions: mean of both orientations
T16 chain: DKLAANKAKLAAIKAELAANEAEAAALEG

APC542-AA = target: T17, APC542-AA; conditions: mean of both orientations
T17 chain: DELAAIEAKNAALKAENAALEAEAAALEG

APC4336-AA = target: T18, APC4336-AA; conditions: mean of both orientations
T18 chain: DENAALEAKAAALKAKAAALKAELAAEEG

APC8516-AA = target: T19, APC8516-AA; conditions: mean of both orientations
T19 chain: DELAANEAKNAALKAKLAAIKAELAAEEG

APC4100-AA = target: T20, APC4100-AA; conditions: mean of both orientations
T20 chain: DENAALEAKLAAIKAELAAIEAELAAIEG

APC6088-AA = target: T21, APC6088-AA; conditions: mean of both orientations
T21 chain: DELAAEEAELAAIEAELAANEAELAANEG

APC9291-AA = target: T22, APC9291-AA; conditions: mean of both orientations
T22 chain: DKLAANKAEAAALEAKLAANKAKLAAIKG

4H_GCN4 = target: 4H_GCN4
Sequence of 4H_GCN4 (chain, as listed by the source): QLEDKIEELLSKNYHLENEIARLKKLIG

4H_APH = target: T23, 4H_APH; conditions: mean of both orientations
T23 chain: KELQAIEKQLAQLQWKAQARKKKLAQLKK

4H_BCR = target: T24, 4H_BCR; conditions: mean of both orientations
T24 chain: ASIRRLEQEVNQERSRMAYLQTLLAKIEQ

4H347-AA = target: T25, 4H347-AA
T25 chain: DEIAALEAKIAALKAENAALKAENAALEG

4H56-AA = target: T26, 4H56-AA; conditions: mean of both orientations
T26 chain: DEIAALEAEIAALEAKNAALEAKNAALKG

4H452-AA = target: T27, 4H452-AA; conditions: mean of both orientations
T27 chain: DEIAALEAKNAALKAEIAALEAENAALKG

GCN2_T = conditions: mean of both orientations

B1: 4H3493-AA (peptide)
chain: DKNAALEAKNAALEAKIAALEAKIAALEG
interaction score (4H376-AA): -1.47
interaction score (4H406-AA): -1.82
interaction score (4H3493-AA): 0.972
interaction score (4H963-AA): -1.58
interaction score (4H688-AA): -1.63

B2: APC3265-AA (peptide)
chain: DKAAALKAEAAALEAELAAEEAKNAALKG
interaction score (APC5531-AA): -1.82
interaction score (APC9806-AA): -1.38
interaction score (APC3354-AA): -1.86
interaction score (APC7524-AA): -1.43
interaction score (APC3323-AA): -1.79
interaction score (APC3265-AA): -1.08
interaction score (APC9141-AA): -1.63
interaction score (APC8401-AA): -1.36
interaction score (APC3881-AA): -1.45
interaction score (APC5009-AA): -1.45
interaction score (APC9182-AA): -1.78
interaction score (APC542-AA): -1.56
interaction score (APC4336-AA): -1.54
interaction score (APC8516-AA): -1.33
interaction score (APC4100-AA): -1.05
interaction score (APC6088-AA): -1.89
interaction score (APC9291-AA): -1.49

B3: 4H347-AA (peptide)
chain: DEIAALEAKIAALKAENAALKAENAALEG
interaction score (4H_GCN4): -2.04
interaction score (4H_APH): -1.79
interaction score (4H_BCR): -1.88
interaction score (4H376-AA): -1.06
interaction score (4H347-AA): -0.315
interaction score (4H406-AA): -1.21
interaction score (4H3493-AA; mean of both orientations): -2.08
interaction score (4H963-AA): -1.41
interaction score (4H56-AA): -0.0342
interaction score (4H688-AA): -0.941
interaction score (4H452-AA): -0.224
interaction score (GCN2_T): -2.14
